Test results from patent US20130089556A1 (SAMSUNG ELECTRONICS, published 2013).
Where two headings read alike, the source gives them in different places.

Experiments:
Assay in all cases: SPR (printed 'Biocare'), antibody immobilised on CM5 chip, c-Met injected at 100-0.39 nM
[1] = target: T1, human c-Met protein (R&D Systems) (human, UniProt P08581 25-932, limits assumed)
T1 construct: also called antigen
Experimental: (§1) Each of antibodies was immobilized to about 80˜110 RU on a CM5 chip, and the c-Met protein (which is an antigen) was injected at nine different concentrations within a range of about 100 nM to about 0.39 nM at a rate of 30 μl/min to obtain kₒₙ and koff values as illustrated in Table 2. KD values were calculated from the kₒₙ and koff values.

[2] = target: T1, human c-Met protein (R&D Systems); remark: listed apart in the source
Experimental: as §1, with “antibodies shown in Table 4” for “antibodies”, “chip. The” for “chip, and the”, “protein” for “protein (which is an antigen)”, “4.” for “2.”

[3] = target: T1, human c-Met protein (R&D Systems); remark: listed apart in the source
Experimental: as §1, with “80-110” for “80˜110”, “protein” for “protein (which is an antigen)”, “3.” for “2.”

T1 sequence (P08581 25-932 limits assumed): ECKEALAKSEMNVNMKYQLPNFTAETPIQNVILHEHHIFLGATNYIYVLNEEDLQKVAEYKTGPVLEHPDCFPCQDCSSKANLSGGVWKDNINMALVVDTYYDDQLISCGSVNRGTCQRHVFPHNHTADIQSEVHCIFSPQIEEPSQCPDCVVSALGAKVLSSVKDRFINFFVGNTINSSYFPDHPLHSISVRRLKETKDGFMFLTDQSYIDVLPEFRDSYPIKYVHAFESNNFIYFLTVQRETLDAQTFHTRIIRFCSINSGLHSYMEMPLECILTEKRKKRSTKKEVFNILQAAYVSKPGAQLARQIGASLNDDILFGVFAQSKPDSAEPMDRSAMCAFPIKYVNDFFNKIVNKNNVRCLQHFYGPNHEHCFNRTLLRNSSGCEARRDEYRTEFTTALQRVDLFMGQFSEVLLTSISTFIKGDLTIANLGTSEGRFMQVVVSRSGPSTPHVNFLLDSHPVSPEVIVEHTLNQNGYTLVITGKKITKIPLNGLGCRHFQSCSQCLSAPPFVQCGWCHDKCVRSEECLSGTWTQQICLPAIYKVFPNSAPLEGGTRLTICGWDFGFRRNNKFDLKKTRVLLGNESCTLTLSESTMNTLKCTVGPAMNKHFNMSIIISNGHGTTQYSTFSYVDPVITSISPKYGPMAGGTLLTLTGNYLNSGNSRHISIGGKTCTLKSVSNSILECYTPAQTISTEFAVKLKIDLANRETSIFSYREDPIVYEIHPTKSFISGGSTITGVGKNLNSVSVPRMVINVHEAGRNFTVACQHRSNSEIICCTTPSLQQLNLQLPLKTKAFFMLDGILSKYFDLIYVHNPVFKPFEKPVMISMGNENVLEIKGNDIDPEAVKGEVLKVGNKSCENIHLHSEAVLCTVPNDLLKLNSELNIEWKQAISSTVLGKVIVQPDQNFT

B1: humanized antibody huAbF46-H1 (antibody, human IgG1, kappa, V domains shown)
VH: EVQLVESGGGLVQPGGSLRLSCAASGFTFTDYYMSWVRQAPGKGLEWLGFIRNKANGYTTEYSASVKGRFTISRDNSKNSLYLQMNSLKTEDTAVYYCARDNWFAYWGQGTLVTVSS
VL: DIVMTQSPDSLAVSLGERATINCKSSQSLLASGNQNNYLAWHQQKPGQPPKMLIIWASTRVSGVPDRFSGSGSGTDFTLTISSLQAEDVAVYYCQQSYSAPLTFGGGTKVEIKR
notes: also called hAbF46-H1
B1 gave a Kd [1] of 1.89 to 1.97 nM, a koff [1] of 0.000655 s⁻¹ and a kon [1] of 346000 M⁻¹ s⁻¹. For the same binder, the Kd [2] was 1.89 nM, the koff [2] was 0.000655 s⁻¹ and the kon [2] was 346000 M⁻¹ s⁻¹.

B2: humanized antibody huAbF46-H4 (antibody, human IgG1, kappa)
heavy: not shown
light: DIQMTQSPSSLSASVGDRVTITCKSSQSLLASGNQNNYLAWHQQKPGKAPKMLIIWASTRVSGVPSRFSGSGSGTDFTLTISSLQPEDFATYYCQQSYSAPLTFGQGTKVEIKRTVAAPSVFIFPPSDEQLKSGTASVVCLLNNFYPREAKVQWKVDNALQSGNSQESVTEQDSKDSTYSLSSTLTLSKADYEKHKVYACEVTHQGLSSPVTKSFNRGE
notes: also called hAbF46-H4
B2 gave a Kd [1] of 2.05 to 2.39 nM, a koff [1] of 0.000696 s⁻¹ and a kon [1] of 339000 M⁻¹ s⁻¹. The Kd [2] was 2.39 nM, the koff [2] was 0.000802 s⁻¹ and the kon [2] was 336000 M⁻¹ s⁻¹.

B3: chimeric antibody chAbF46 (antibody, human IgG1)
heavy: not shown
light: DILMTQSPSSLTVSAGEKVTMSCKSSQSLLASGNQNNYLAWHQQKPGRSPKMLIIWASTRVSGVPDRFIGSGSGTDFTLTINSVQAEDLAVYYCQQSYSAPLTFGAGTKLELKRTVAAPSVFIFPPSDEQLKSGTASVVCLLNNFYPREAKVQWKVDNALQSGNSQESVTEQDSKDSTYSLSSTLTLSKADYEKHKVYACEVTHQGLSSPVTKSFNRGEC
notes: Mouse AbF46 variable regions on human IgG1 constant regions
B3 showed a Kd [1] of 1.01 to 1.42 nM, a koff [1] of 0.000367 s⁻¹ and a kon [1] of 363000 M⁻¹ s⁻¹. It also gave a Kd [3] of 1.01 nM, a koff [3] of 0.000367 s⁻¹ and a kon [3] of 363000 M⁻¹ s⁻¹.

B4: chAbF46-U3-HC9 (antibody, human IgG1)
heavy: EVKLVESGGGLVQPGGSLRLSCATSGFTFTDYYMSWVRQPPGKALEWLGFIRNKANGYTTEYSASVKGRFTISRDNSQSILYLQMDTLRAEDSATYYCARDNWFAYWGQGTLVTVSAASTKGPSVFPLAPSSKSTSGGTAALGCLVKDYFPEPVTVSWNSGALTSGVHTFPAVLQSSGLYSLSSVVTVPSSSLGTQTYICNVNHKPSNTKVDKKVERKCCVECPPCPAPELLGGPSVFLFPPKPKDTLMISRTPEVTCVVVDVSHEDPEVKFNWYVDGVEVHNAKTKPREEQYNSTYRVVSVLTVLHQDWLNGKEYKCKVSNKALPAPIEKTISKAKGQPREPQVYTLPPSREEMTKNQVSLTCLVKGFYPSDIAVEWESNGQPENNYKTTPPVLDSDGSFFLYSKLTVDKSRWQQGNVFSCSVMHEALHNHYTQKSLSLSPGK
light: DILMTQSPSSLTVSAGEKVTMSCKSSQSLLASGNQNNYLAWHQQKPGRSPKMLIIWASTRVSGVPDRFIGSGSGTDFTLTINSVQAEDLAVYYCQQSYSAPLTFGAGTKLELKRTVAAPSVFIFPPSDEQLKSGTASVVCLLNNFYPREAKVQWKVDNALQSGNSQESVTEQDSKDSTYSLSSTLTLSKADYEKHKVYACEVTHQGLSSPVTKSFNRGEC
B4 was tested, and the Kd [3] was 1.38 nM, the koff [3] was 0.000554 s⁻¹ and the kon [3] was 400000 M⁻¹ s⁻¹.

B5: chAbF46-U6-HC8 (antibody, human IgG1)
heavy: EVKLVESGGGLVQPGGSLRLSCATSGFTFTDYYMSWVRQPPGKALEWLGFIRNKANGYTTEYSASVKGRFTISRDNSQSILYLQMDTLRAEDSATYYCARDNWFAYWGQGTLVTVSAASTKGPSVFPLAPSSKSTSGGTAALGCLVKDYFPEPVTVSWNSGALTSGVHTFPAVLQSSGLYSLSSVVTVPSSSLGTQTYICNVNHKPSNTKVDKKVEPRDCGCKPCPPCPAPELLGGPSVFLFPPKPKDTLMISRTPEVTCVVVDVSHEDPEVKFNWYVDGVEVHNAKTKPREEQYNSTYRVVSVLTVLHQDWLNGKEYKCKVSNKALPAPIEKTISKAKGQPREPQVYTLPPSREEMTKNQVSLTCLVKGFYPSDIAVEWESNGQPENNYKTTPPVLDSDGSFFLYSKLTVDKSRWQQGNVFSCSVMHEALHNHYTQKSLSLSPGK
light: DILMTQSPSSLTVSAGEKVTMSCKSSQSLLASGNQNNYLAWHQQKPGRSPKMLIIWASTRVSGVPDRFIGSGSGTDFTLTINSVQAEDLAVYYCQQSYSAPLTFGAGTKLELKRTVAAPSVFIFPPSDEQLKSGTASVVCLLNNFYPREAKVQWKVDNALQSGNSQESVTEQDSKDSTYSLSSTLTLSKADYEKHKVYACEVTHQGLSSPVTKSFNRGEC
In the case of B5, the Kd [3] is reported as 1.34 nM, the koff [3] is reported as 0.000626 s⁻¹ and the kon [3] is reported as 469000 M⁻¹ s⁻¹.

B6: chAbF46-U7-HC6 (antibody, human IgG1)
heavy: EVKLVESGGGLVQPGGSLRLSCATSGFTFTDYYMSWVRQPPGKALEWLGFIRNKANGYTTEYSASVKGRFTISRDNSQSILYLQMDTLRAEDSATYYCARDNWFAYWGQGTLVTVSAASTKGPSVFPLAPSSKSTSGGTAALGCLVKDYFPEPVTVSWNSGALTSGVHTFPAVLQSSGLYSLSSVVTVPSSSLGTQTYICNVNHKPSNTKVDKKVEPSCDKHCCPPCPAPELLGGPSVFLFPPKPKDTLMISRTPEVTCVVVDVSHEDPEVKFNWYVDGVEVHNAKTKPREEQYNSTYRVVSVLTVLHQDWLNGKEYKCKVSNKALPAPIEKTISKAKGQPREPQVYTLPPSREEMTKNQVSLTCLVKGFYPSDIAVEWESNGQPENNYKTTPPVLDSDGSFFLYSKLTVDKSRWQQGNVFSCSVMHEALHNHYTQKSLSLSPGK
light: DILMTQSPSSLTVSAGEKVTMSCKSSQSLLASGNQNNYLAWHQQKPGRSPKMLIIWASTRVSGVPDRFIGSGSGTDFTLTINSVQAEDLAVYYCQQSYSAPLTFGAGTKLELKRTVAAPSVFIFPPSDEQLKSGTASVVCLLNNFYPREAKVQWKVDNALQSGNSQESVTEQDSKDSTYSLSSTLTLSKADYEKHKVYACEVTHQGLSSPVTKSFNRGEC
B6 was tested, and the Kd [3] was 1.66 nM, the koff [3] was 0.000862 s⁻¹ and the kon [3] was 518000 M⁻¹ s⁻¹.

B7: chAbF46-U6-HC7 (antibody, human IgG1)
heavy: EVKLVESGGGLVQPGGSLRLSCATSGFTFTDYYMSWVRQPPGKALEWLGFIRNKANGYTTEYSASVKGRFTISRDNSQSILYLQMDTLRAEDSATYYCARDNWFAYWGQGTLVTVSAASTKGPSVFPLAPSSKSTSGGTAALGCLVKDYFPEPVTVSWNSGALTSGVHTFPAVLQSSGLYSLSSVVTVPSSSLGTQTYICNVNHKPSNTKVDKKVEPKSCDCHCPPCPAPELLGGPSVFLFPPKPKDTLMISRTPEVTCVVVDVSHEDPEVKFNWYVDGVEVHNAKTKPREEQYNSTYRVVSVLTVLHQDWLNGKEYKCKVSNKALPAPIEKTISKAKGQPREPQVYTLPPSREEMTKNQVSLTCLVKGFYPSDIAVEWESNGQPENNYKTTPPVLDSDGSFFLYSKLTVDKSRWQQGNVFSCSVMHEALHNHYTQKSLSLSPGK
light: DILMTQSPSSLTVSAGEKVTMSCKSSQSLLASGNQNNYLAWHQQKPGRSPKMLIIWASTRVSGVPDRFIGSGSGTDFTLTINSVQAEDLAVYYCQQSYSAPLTFGAGTKLELKRTVAAPSVFIFPPSDEQLKSGTASVVCLLNNFYPREAKVQWKVDNALQSGNSQESVTEQDSKDSTYSLSSTLTLSKADYEKHKVYACEVTHQGLSSPVTKSFNRGEC
With B7 the Kd [3] was 1.63 nM, the koff [3] was 0.000614 s⁻¹ and the kon [3] was 376000 M⁻¹ s⁻¹.

B8: chAbF46-U8-HC5 (antibody, human IgG1)
heavy: not shown
light: DILMTQSPSSLTVSAGEKVTMSCKSSQSLLASGNQNNYLAWHQQKPGRSPKMLIIWASTRVSGVPDRFIGSGSGTDFTLTINSVQAEDLAVYYCQQSYSAPLTFGAGTKLELKRTVAAPSVFIFPPSDEQLKSGTASVVCLLNNFYPREAKVQWKVDNALQSGNSQESVTEQDSKDSTYSLSSTLTLSKADYEKHKVYACEVTHQGLSSPVTKSFNRGEC
In the case of B8, the Kd [3] is reported as 1.32 nM, the koff [3] is reported as 0.000678 s⁻¹ and the kon [3] is reported as 515000 M⁻¹ s⁻¹.

B9: huAbF46-H4-U7-HC6 (antibody)
heavy: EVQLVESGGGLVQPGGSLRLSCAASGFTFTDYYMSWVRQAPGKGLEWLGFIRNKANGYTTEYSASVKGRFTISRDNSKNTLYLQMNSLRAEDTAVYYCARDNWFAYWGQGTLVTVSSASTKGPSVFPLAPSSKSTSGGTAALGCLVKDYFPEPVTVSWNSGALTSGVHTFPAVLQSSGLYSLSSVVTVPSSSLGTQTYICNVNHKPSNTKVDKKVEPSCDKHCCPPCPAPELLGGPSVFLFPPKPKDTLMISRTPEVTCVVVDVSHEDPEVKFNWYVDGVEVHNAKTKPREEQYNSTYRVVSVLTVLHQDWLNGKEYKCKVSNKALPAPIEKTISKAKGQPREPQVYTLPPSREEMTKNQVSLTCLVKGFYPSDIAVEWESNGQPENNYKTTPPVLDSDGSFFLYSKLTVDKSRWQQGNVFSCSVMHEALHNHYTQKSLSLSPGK
light: DIQMTQSPSSLSASVGDRVTITCKSSQSLLASGNQNNYLAWHQQKPGKAPKMLIIWASTRVSGVPSRFSGSGSGTDFTLTISSLQPEDFATYYCQQSYSAPLTFGQGTKVEIKRTVAAPSVFIFPPSDEQLKSGTASVVCLLNNFYPREAKVQWKVDNALQSGNSQESVTEQDSKDSTYSLSSTLTLSKADYEKHKVYACEVTHQGLSSPVTKSFNRGEC
For B9, the Kd [2] was 3.74 nM, the koff [2] was 0.000981 s⁻¹ and the kon [2] was 263000 M⁻¹ s⁻¹.
